Test results: paper PMC6787221

Tests used:
[1] = molecular target: STAM2 UIM-SH3 with the linker shortened by 7 amino acids (human); test: NMR titration; 1H-15N HSQC chemical shift perturbation of 15N-labelled US-WT, US-Δ1, US-Δ2 upon addition of unlabelled Lys63-Ub2 until saturation; 15 °C, 20 mM sodium phosphate pH 6.8, 10% D2O, 0.02% NaN3; 2:1 model (each domain interacts with one unit of Lys63-Ub2)
[2] = molecular target: STAM2 UIM-SH3 with the linker shortened by 14 amino acids (human); test: as above

For “Lys63-linked diubiquitin (from UniProt P0CG48 1-76) (complex)”, the KD at the SH3 domain [1] was 253 µM and the KD at the SH3 domain [2] was 483 µM.
